Source: US20230143003A1 (JULIUS MAXIMILIANS UNIVERSIT T W RZBURG, published 2023)
Changes are numbered by the printed parent chain. In names and notes the source's numbering stands. Several values for one entry are separate records, joined by “and”; a condition that tells them apart may be missing. Equal entries are not always repeated. Each block holds one binder with its values, some of them ahead of it.

Assays:
[1] = molecular target: T1, hROR2-Fc (human ROR2 Fc fusion protein) (human, UniProt Q01974 34-403, limits assumed); test: SPR; reference the existing anti-ROR2 antibody (XBR2-401)
T1 construct: Given both as hROR2-Fc and as Fc-hROR2, so the order of the two parts is not certain; also called Fc-hROR2; not shown: human Fc part (captured by a mouse anti-human IgG CH2 / Fcγ mAb)

[2] = molecular target: T1, hROR2-Fc (human ROR2 Fc fusion protein); test: SPR, Biacore X100; hROR2-Fc captured by anti-human Fc mAb on a CM5 chip, Fab injected
[3] = molecular target: T2, human ROR1 on cells (MDA-MB-231, ROR2-, ROR1+; also 786-O, ROR2+, ROR1+) (human, UniProt Q01973 30-937); test: flow cytometry on MDA-MB-231 cells (ROR2-, ROR1+); Fab followed by PE-conjugated goat anti-human F(ab')2 pAbs
T2 construct: whole, on cells

[4] = molecular target: T1, hROR2-Fc (human ROR2 Fc fusion protein); test: SPR (Biacore X100), Fc-hROR2 captured on CM5 chip via mouse anti-human Fcγ mAb, Fab as analyte, 1:1 binding model
[5] = molecular target: T1, hROR2-Fc (human ROR2 Fc fusion protein); test: SPR, Biacore X100; hROR2-Fc captured, Fab injected; reference Fab 401
[6] = molecular target: T2, human ROR1 on cells (MDA-MB-231, ROR2-, …); test: Retrogenix cell microarray post-screen, ROR1 expressed on HEK 293 cells
[7] = molecular target: human CD3 on Jurkat-T Lucia cells (CD3+) (human, UniProt P07766 23-207; P04234 22-171; P09693 23-182); test: flow cytometry on Jurkat-T Lucia cells (CD3+); scFv-Fc followed by Alexa Fluor 647-conjugated donkey anti-human F(ab')2 pAbs
[8] = molecular target: human ROR2 on cells (endogenous on T47D, 786-O and U266 cell lines); expressed on HEK 293 cells of the … (human, UniProt Q01974 34-943); test: cell-based or functional assay
[9] = molecular target: T2, human ROR1 on cells (MDA-MB-231, ROR2-, …); test: flow cytometry on MDA-MB-231 cells (ROR2-, ROR1+); biAb followed by Alexa Fluor 647-conjugated donkey anti-human F(ab')2 pAbs

B1: XBR2-401-X3.12 Fab (affinity matured chimeric rabbit/human Fab) (Fab, V domains shown)
VH: QSVKESEGGLFKPTDTLTLTCTVSGFSLSSYGVTWVRQAPGSGLEWIGYINTAGNTYYASWAKSRSTITRNTNENTVTLKMTSLTAADTATYFCARDDRWSLNIWGPGTLVTVSS
VL: DPMLTQTPSSTSTAVGDTVTIKCQASQSISSDLSWYQQKPGQRPKLLIYQASTLASGVPSRFKGSGYGTEYTLTISGVQREDAAIYYCLGGYADASYRTAFGGGTKLEIK
notes: Chimeric rabbit/human Fab
fold increase in binding affinity [1]: 10 fold
Kd [2]: 0.7 nM
binding result [3]: no binding
Kd [4]: 0.72 nM
koff [4]: 3.3e-05 s⁻¹
kon [4]: 45000 M⁻¹ s⁻¹
fold improvement of affinity from 401 [5]: ≥ 5 fold

B3: 401×v9 ROR2×CD3 bispecific antibody (heterodimeric aglycosylated scFv-Fc) (bispecific antibody)
chain 1: DPMLTQTPSSTSTAVGDTVTIKCQASQSISSDLSWYQQKPGQRPKLLIYQASTLASGVPSRFKGSGYGTEYTLTISGVQREDAAIYYCLGGYADASYRTAFGGGTKLEIKGGGGSGGGGSGGGGSQSVKESEGGLFKPTDTLTLTCTVSGFSLSSYGVTWVRQAPGSGLEWIGYINTAGNTYYASWAKSRSTITRNTNENTVTLKMTSLTAADTATYFCARDWTSLNIWGPGTLVTVSSEPKSSDKTHTCPPCPAPELLGGPSVFLFPPKPKDTLMISRTPEVTCVVVDVSHEDPEVKFNWYVDGVEVHNAKTKPREEQYASTYRVVSVLTVLHQDWLNGKEYKCKVSNKALPAPIEKTISKAKGQPREPQVYTLPPCRDELTKNQVSLWCLVKGFYPSDIAVEWESNGQPENNYKTTPPVLDSDGSFFLYSKLTVDKSRWQQGNVFSCSVMHEALHNHYTQKSLSLSPGA
chain 2: EVQLVESGGGLVQPGGSLRLSCAASGYSFTGYTMNWVRQAPGKGLEWVALINPYKGVSTYNQKFKDRFTISVDKSKNTAYLQMNSLRAEDTAVYYCARSGYYGDSDWYFDVWGQGTLVTVSSGGGGSGGGGSGGGGSDIQMTQSPSSLSASVGDRVTITCRASQDIRNYLNWYQQKPGKAPKLLIYYTSRLESGVPSRFSGSGSGTDYTLTISSLQPEDFATYYCQQGNTLPWTFGQGTKVEIKEPKSSDKTHTCPPCPAPELLGGPSVFLFPPKPKDTLMISRTPEVTCVVVDVSHEDPEVKFNWYVDGVEVHNAKTKPREEQYASTYRVVSVLTVLHQDWLNGKEYKCKVSNKALPAPIEKTISKAKGQPREPQVCTLPPSRDELTKNQVSLSCAVKGFYPSDIAVEWESNGQPENNYKTTPPVLDSDGSFFLVSKLTVDKSRWQQGNVFSCSVMHEALHNHYTQKSLSLSPGA
specific lysis of 786-O cells by expanded primary T cells (E:T 10:1, 16 h), EC50 [8]: 0.19 µg/mL and 1.9 nM
binding result [9]: no binding

B4: hX3.12.6×v9 ROR2×CD3 bispecific antibody (heterodimeric aglycosylated scFv-Fc) (bispecific antibody)
chain 1: DPMLTQSPSSLSASVGDRVTITCQASQSISSDLSWYQQKPGKAPKLLIYQASTLASGVPSRFKGSGYGTEYTLTISSLQPEDFATYYCLGGYADASYRTAFGGGTKLEIKGGGGSGGGGSGGGGSEVQLVESGGGLVQPGGSLRLSCAASGFTFSSYGVTWVRQAPGKGLEWVSYINTAGNTYYASWAKSRFTISRDNAKNSLYLQMNSLRAEDTAVYYCARDDRWSLNIWGQGTLVTVSSEPKSSDKTHTCPPCPAPELLGGPSVFLFPPKPKDTLMISRTPEVTCVVVDVSHEDPEVKFNWYVDGVEVHNAKTKPREEQYASTYRVVSVLTVLHQDWLNGKEYKCKVSNKALPAPIEKTISKAKGQPREPQVYTLPPCRDELTKNQVSLWCLVKGFYPSDIAVEWESNGQPENNYKTTPPVLDSDGSFFLYSKLTVDKSRWQQGNVFSCSVMHEALHNHYTQKSLSLSPGA
chain 2: B3 chain 2
notes: ROR2 scFv on the knob Fc, v9 anti-CD3 scFv on the hole Fc, both N297A; also called hX3.12.6×V9 bi-mAb
specific lysis of 786-O cells by expanded primary T cells (E:T 10:1, 16 h), EC50 [8]: 0.21 µg/mL and 2.1 nM
binding result [9]: no binding

Results, then the binder that gave them:

binding result [6]: no binding (tested: 20 µg/mL)
binding result [7]: no binding
B2: hX3.12.6 scFv-Fc (IgG1-like format, two identical scFv fused to human IgG1 Fc) (Fc fusion)
chain: DPMLTQSPSSLSASVGDRVTITCQASQSISSDLSWYQQKPGKAPKLLIYQASTLASGVPSRFKGSGYGTEYTLTISSLQPEDFATYYCLGGYADASYRTAFGGGTKLEIKGGGGSGGGGSGGGGSEVQLVESGGGLVQPGGSLRLSCAASGFTFSSYGVTWVRQAPGKGLEWVSYINTAGNTYYASWAKSRFTISRDNAKNSLYLQMNSLRAEDTAVYYCARDDRWSLNIWGQGTLVTVSS
notes: The text says only: (Gly4Ser)3 linker between VL and VH, fused to the human IgG1 Fc fragment; also called mAb hX3.12.6 in scFv-Fc format; Humanized scFv-Fc xh3.12.6; not shown: human IgG1 Fc fragment

specific lysis of 786-O cells by expanded primary T cells (E:T 10:1, 16 h), EC50 [8]: 0.15 µg/mL and 1.5 nM
binding result [9]: no binding
B5: hX3.12.5×v9 ROR2×CD3 bispecific antibody (heterodimeric aglycosylated scFv-Fc) (bispecific antibody)
chain 1: B4 chain 1 with V137I, F154V, A199S, S202T
chain 2: B3 chain 2
notes: ROR2 scFv on the knob Fc, v9 anti-CD3 scFv on the hole Fc, both N297A; also called hX3.12.5×V9 bi-mAb; hX3.12.5×CD3 bi-mAb
